From US20240207432A1 (BIOSION, published 2024)
Where two headings read alike, the source gives them in different places.

Legend:
[1] = target: T1, full length human TROP2 on 293F-TROP2 cells (human, UniProt P09758 27-323); assay: FACS on 293F-TROP2 cells, MFI
T1 construct: also called 293F-TROP2 cells (clone ID #3A8); cell surface TROP2
T1 sequence: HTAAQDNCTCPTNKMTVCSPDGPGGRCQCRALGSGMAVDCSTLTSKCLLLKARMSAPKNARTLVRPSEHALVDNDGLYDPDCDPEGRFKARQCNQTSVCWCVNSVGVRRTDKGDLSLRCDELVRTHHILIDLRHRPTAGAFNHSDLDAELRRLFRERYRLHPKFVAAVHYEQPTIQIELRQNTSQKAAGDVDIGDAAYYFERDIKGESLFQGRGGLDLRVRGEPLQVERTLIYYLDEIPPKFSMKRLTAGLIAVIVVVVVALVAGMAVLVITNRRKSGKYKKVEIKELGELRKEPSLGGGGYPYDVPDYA
Procedure: (§1) The 293F-TROP2 cells were harvested from cell culture flasks, washed twice and re-suspended in phosphate buffered saline (PBS) containing 2% v/v Fetal Bovine Serum (FACS buffer). […] Following an incubation of 40 minutes at 4° C. in dark, cells were washed twice and re-suspended in FACS buffer. Fluorescence was measured using a Becton Dickinson FACS Canto II-HTS equipment, and the MFI (mean fluorescence intensity) was plotted against antibody concentration. Data was analyzed using Graphpad Prism software and EC₅₀ values were reported.

[2] = target: T2, cynomolgus TROP2-his protein (cynomolgus monkey, UniProt P09758 27-272 (human entry), limits assumed); assay: indirect ELISA, cynomolgus TROP2-his coated, OD(450-630)
T2 construct: no cleavage site is stated; also called Cynomolgus monkey TROP2-his protein; monkey TROP2
T2 chain: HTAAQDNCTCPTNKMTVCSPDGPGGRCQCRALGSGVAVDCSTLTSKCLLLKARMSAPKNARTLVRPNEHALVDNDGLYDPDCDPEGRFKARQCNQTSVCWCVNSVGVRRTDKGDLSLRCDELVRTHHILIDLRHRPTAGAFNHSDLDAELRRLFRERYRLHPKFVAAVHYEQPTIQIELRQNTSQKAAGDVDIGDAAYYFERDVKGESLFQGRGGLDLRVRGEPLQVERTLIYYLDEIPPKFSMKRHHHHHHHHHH

[3] = target: T1, full length human TROP2 on 293F-TROP2 …; assay: FACS on 293F-TROP2 cells, MFI; remark: listed apart in the source
Procedure: The binding activity of the mouse anti-TROP2 antibodies to cell surface TROP2 proteins was tested by flow cytometry (FACS), using Biosion in-house prepared 293F-TROP2 cells (clone ID #3A8) stably expressing full length human TROP2s (uniprot #P09758, SEQ ID NO.: 71) on cell membrane. The 293F-TROP2 cells were prepared by transfecting 293F cells (Thermofisher Inc., Cat #11625019) with a pCMV-T-P plasmid inserted with human TROP2 coding sequence between EcoRI and XbaI sites, following the instruction of lipofectamine 3000 transfection reagent (Thermo Fisher).
as §1

[4] = target: T2, cynomolgus TROP2-his protein; assay: indirect ELISA, cynomolgus TROP2-his coated at 2 ug/mL, OD(450-630)
Procedure: The anti-TROP2 antibodies of the disclosure were tested for their cross-reaction with cynomolgus TROP2 proteins. Briefly, 96-well micro plates were coated with 100 μl 2 μg/ml cynomolgus TROP2-his proteins (prepared in-house with SEQ ID NO: 70) in carbonate/bicarbonate buffer (pH 9.6) overnight at 4° C. ELISA plates were washed once with wash buffer (PBS+0.05% v/v Tween-20, PBST) and then blocked with 200 μl/well blocking buffer (5% w/v non-fatty milk in PBST) for 2 hours at 37° C. […] After a final wash, plates were incubated with 100 μl/well TMB (Innoreagents) at room temperature. The reaction was stopped 3-10 minutes later at room temperature with 50 μl/well 1M H₂SO₄, and the absorbance of each well was read on a microplate reader using dual wavelength mode with 450 nm for TMB and 630 nm as the reference wavelength. The OD (450-630) values were plotted against antibody concentration. Data was analyzed using Graphpad Prism software and EC₅₀ values were reported.

human TROP2-his protein = target: T3, human TROP2-his protein (human, UniProt P09758 27-274); assay: capture ELISA, antibody captured on anti-mouse IgG Fc coat, biotin human TROP2-his in solution, OD(450-630)
T3 construct: Biotin-labelled in the ELISAs, unlabelled analyte in Biacore; also called biotin-labeled human TROP2-his protein; biotin human Trop2-his
T3 sequence: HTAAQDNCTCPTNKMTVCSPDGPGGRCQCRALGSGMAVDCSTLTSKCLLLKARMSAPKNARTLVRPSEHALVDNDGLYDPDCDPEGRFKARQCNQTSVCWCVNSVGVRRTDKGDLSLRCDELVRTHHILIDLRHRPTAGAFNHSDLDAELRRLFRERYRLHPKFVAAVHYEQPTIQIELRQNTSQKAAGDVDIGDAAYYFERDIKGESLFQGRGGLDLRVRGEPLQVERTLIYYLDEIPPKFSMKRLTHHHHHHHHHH
Procedure: Plates were washed once with wash buffer (PBS+0.05% v/v Tween-20, PBST) and then blocked with 200 μl/well blocking buffer (5% w/v non-fatty milk in PBST) for 2 hours at 37° C. […] Plates containing captured anti-TROP2 antibodies were incubated with biotin-labeled human TROP2-his protein (prepared in house, SEQ ID NO: 67, 56.7 ng/mL in 2.5% w/v non-fatty milk in PBST, 100 μl/well) for 40 minutes at 37° C., washed 4 times, and incubated with streptavidin conjugated HRP (1:10000 dilution in PBST, Jackson Immuno Research, Cat #016-030-084, 100 μl/well) for 40 minutes at 37° C. After a final wash, plates were incubated with 100 μl/well ELISA substrate TMB (Innoreagents, Cat #TMB-S-002) at room temperature. The reaction was stopped in 3-10 minutes at room temperature with 50 μl/well 1M H₂SO₄, and the absorbance of each well was read on a microplate reader using dual wavelength mode with 450 nm for TMB and 630 nm as the reference wavelength. The OD (450-630) values were plotted against antibody concentration. Data was analyzed using Graphpad Prism software and EC₅₀ values were reported.

[5] = target: T2, cynomolgus TROP2-his protein; assay: indirect ELISA, cynomolgus TROP2-his coated, OD(450-630)

B1: huA1E4F7D4-V16 (antibody, human IgG1, kappa, V domains shown)
VH: QVQLVQSGAEVKKPGASVKVSCKASGYSFTTHWIHWVRQAPGQGLEWIGTIFPSNAYAVYNQKFRDRATMTADTSISTAYIELSRLRSDDTAVYYCARASYFDYWGQGTTVTVSS
VL: EIVLTQSPATLSLSPGERATLSCRASQNIGTSIHWFQQKPGGAPRLLIKYASESISGIPSRFSGSGSGTDFTLTISSLEPEDFAVYYCQHSHSWPFTFGQGTKLEIKR
notes: Positions of the X residues are given in the claims; also called humanized antibody huA1E4F7D4-V16
EC50 [1]: 0.596 nM | EC50 [2]: 0.611 nM

B2: mouse antibody A1E11A12D1 (antibody, V domains shown)
VH: QVQLQQSGAELARPGASVKLSCMASGYTFTTYGISWVRQRTGQGLEWIGQIYPGSDYSYCDEDFKGKATLTADKSSSTAYMQLSSLTSEDSAVYFCARASYFDYWGQGTTLTVSS
VL: DILLTQSPAILSVSPGERVSFSCRASQTIGTAIHWYQQRANGSPRLLIKYASESISGIPSRFSGSGSGTDFALSINTVESEDFAYYYCQQSNNWPFTFGGGTKLEIR
notes: Mouse monoclonal IgG purified from hybridoma supernatant
EC50 [3]: 0.78 nM | EC50 [4]: 0.757 nM | EC50 (human TROP2-his protein): 0.13 nM

B3: mouse antibody A1H3C5H8E12 (antibody, V domains shown)
VH: QVQLQQSGAELVRPGTSVKMSCKAAGYTFTNYWIDWVKQRPGHGLEWIGNIFPGGFYTNYNEKFKGKATLTADTSSSTAYMQLSSLTSEDSAIYYCARGGVFDYWGQGTTLTVSS
VL: DILLTQSPAILSVSPGERVSFSCRASQSIGTSIHWYQQRTNGSPRLLIKYASESISGIPSRFSGSGSGTDFTLSINSVESEDIADYYCQQSNSWPYTFGGGTKLEIK
notes: as for B2
EC50 [3]: 0.773 nM | EC50 [4]: 0.593 nM | EC50 (human TROP2-his protein): 0.303 nM

B4: benchmark (in house prepared sacituzumab) (antibody, human IgG1, kappa, V domains shown)
VH: SVQLQQSGSELKKPGASVKVSCKASGYTFTNYGMNWVKQAPGQGLKWMGWINTYTGEPTYTDDFKGRFAFSLDTSVSTAYLQISSLKADDTAVYFCARGGFGSSYWYFDVWGQGSLVTVSS
VL: DIQLTQSPSSLSASVGDRVSITCKASQDVSIAVAWYQQKPGKAPKLLIYSASYRYTGVPDRFSGSGSGTDFTLTISSLQPEDFAVYYCQQHYITPLTFGAGTKVEIKR
notes: also called BM; BM1
EC50 [3]: 0.83 nM | EC50 [1]: 1.32 nM | EC50 [2]: 0.599 nM | EC50 [5]: 0.191 nM | EC50 [4]: 0.134 nM

B5: mouse antibody A1E4F7D4 (antibody, V domains shown)
VH: QVQLQQSGAELAKPGTSVKMSCEASGYSFTTHWIHWMKQRPGQGLEWIGTIFPSNAYAVYNQKFRDRAIMTADRSSTTAYIQLTGLTSEDSAVYYCARASYFDYWGQGTTLTVSS
VL: DILLTQSPATLSVSPGERVTFSCRASQNIGTSIHWFQQRTTGSPRLLIKYASESISGIPSRFSGSGSGTDFTLHINSVESEDIAHYYCQHSHSWPFTFGSGTKLEIQ
notes: Mouse monoclonal IgG purified from hybridoma supernatant; also called Mouse A1E4F7D4
EC50 [3]: 0.481 nM | EC50 [1]: 1.48 nM | EC50 [2]: 0.837 nM | EC50 [5]: 0.177 nM | EC50 [4]: 0.576 nM | EC50 (human TROP2-his protein): 0.0891 nM

B6: mouse antibody C1B3B12D2 (antibody, V domains shown)
VH: QVQLQQSGPELVRPGTSVKMSCKAAGYTFTKFWIGWVKQRPGHGLEWIGNIYPGGAYINYNENFKGKATLTADTFSSTAYMQLNSLTSADSAIYYCAREGSSGYWGQGTTLTVSS
VL: DIVMTQSPSSLTVTAGEKVTLSCKCSQSLLNSGTQENYLTWYQQKPGQPPKMLIYWASIREPGVPDRFTGSGSGTDFTLTINNVQAEDLAVYYCQHDYSYPFTFGSGTKLEIK
notes: as for B2
EC50 (read off the curve) [3]: ~1 nM | EC50 [5]: 0.0849 nM | EC50 (human TROP2-his protein): 0.107 nM
